Test results as given in paper PMC5473940, “SAF-A Regulates Interphase Chromosome Structure through Oligomerization with Chromatin-Associated RNAs” (Cell, 2017).

Biological target: the molecule itself
Experiment: native gel or EMSA; FLAG-SAF-A cross-linked in cells with 1 mM DTME, immuno-purified, cross-links reversed with 10 mM DTT, incubated 30 min at 37°C with 1 mM ATP or ATPγS, RNase A/T1 or apyrase (the last two promoted monomerization); native PAGE and western blot

B1: full-length FLAG-tagged SAF-A (293T) (natural protein)
chain: not shown
notes: SAF-A (HNRNP-U), human cDNA from Genome Cube; Modified pcDNA5/FRT vector; also called FLAG-SAF-A; 3xFLAG-SAF-A; source: 293T, expressed, cross-linked in cells, immuno-purified (anti-FLAG M2 agarose, 3xFLAG peptide elution); not shown: 3xFLAG, N-terminal, kept
- binding result: binds
